According to US20220315670A1 (RESEARCH FOUNDATION FOR THE STATE UNIVERSITY OF NEW YORK, published 2022):

Columns and labels:
trastuzumab (Herceptin) [1] = target: T1, trastuzumab (Herceptin); assay: ELISA screen of colony lysate on coated trastuzumab, 40 h with 1 uM 1HE, high-affinity panning
T1 construct: also called Tmab; not shown: the constant regions

trastuzumab (Herceptin) [2] = target: T1, trastuzumab (Herceptin); assay: SPR, trastuzumab immobilized by amine coupling, 10-hour dissociation, 1:1 Langmuir fit
Experimental: (§1) A mobile phase of 0.05% Tween-20 PBS pH 7.4 was used at a flow rate of 25 μL/minute. […] Association and dissociation rate constants were determined using a 1:1 Langmuir binding model in the biosensor data analysis software Scrubber (BioLogic Software, Canberra, Australia).
(§2) An optimal range was 10 pM to 10 nM.

trastuzumab (Herceptin) [3] = target: T1, trastuzumab (Herceptin); assay: dissociation ELISA on covalently immobilised trastuzumab
Experimental: (§3) Individual mutants were expressed and purified using a nickel chromatography resin, as previously described (16). […] The following day, unreacted sites were blocked with 10 mM ethanolamine in a 100 mM sodium bicarbonate buffer pH 9.5 for one hour. Purified mutants were incubated for one hour and subsequently washed three times with wash buffer. Following washing, 0.1% BSA PBS solution was added to the initial timepoint wells. […] At individual time points, the buffer in the time point wells was removed by pipetting, and the wells washed three times with wash buffer and 0.1% BSA PBS added. At the terminal time point, all wells were washed three times with wash buffer, and secondary antibodies added at the dilutions listed above for one hour at room temperature. Following secondary incubation, plates were washed three times with wash buffer and three times with dH₂O. 250 μl of 4 mg/ml PnPP in a 10 mM diethanolamine pH 9.8 buffer was added to each well, and absorbance values read for 10 minutes at 30-second intervals. The change in absorbance per minute for each well was divided by the average change in absorbance per minute for the initial time point wells, and the resulting dissociation curves fit to a monoexponential decay function in GraphPad Prism 7 (GraphPad, San Diego, Calif.). Each time point was run in triplicate for each mutant.

trastuzumab (Herceptin) [4] = target: T1, trastuzumab (Herceptin); assay: SPR, trastuzumab immobilized by amine coupling, 1HE at 10, 20 and 35 nM, 1:1 Langmuir fit
Experimental: as §1, §2

trastuzumab (Herceptin) [5] = target: T1, trastuzumab (Herceptin); assay: inferred from the IC50 of the SKOV3 cell competition assay with 200 pM 125I-trastuzumab
Experimental: (§4) SKOV3 cells (ATCC, HTB-77) were grown in complete McCoys 5a media to confluency in a T75 flask and dissociated using 50 μM EDTA. […] Cells were incubated at 4° C. for 90 minutes to reach binding equilibrium followed by 4 washes with 1 mL of 1% BSA PBS buffer to remove non-specific radioactivity. Cell-associated radioactivity was assessed through gamma counting.
as §2

trastuzumab (Herceptin) [6] = target: T1, trastuzumab (Herceptin); assay: competition on SKOV3 cells, 200 pM 125I-trastuzumab with increasing 1HE, 4 C, 90 minutes, gamma counting
Experimental: as §4, §2

trastuzumab (Herceptin) [7] = target: T1, trastuzumab (Herceptin); assay: competition on SKOV3 cells, 125I-trastuzumab with increasing 1HE, cell-associated radioactivity
Experimental: Points represent the mean of triplicate samples with standard deviation error bars.
as §4

trastuzumab (Herceptin) [8] = target: T1, trastuzumab (Herceptin); assay: dissociation ELISA on covalently immobilised trastuzumab, 1 uM 1HE in the buffer
Experimental: as §3

trastuzumab (Herceptin) [9] = target: T1, trastuzumab (Herceptin); assay: dissociation ELISA on covalently immobilised trastuzumab, 500 nM trastuzumab in the buffer
Experimental: as §3

trastuzumab (Herceptin) [10] = target: T1, trastuzumab (Herceptin); assay: ELISA screen of colony lysate on coated trastuzumab, low-affinity panning
trastuzumab (Herceptin) [11] = target: T1, trastuzumab (Herceptin); assay: dissociation ELISA, trastuzumab covalently immobilized, 1 uM 1HE in buffer to block rebinding, monoexponential fit
Experimental: as §3

B1: 2D7 (VHH)
VHH: EVQLVESGGGLVQAGDSLTLSCAASGRTFSSVAMGWFRQAPGKERKFVANISWNGDSTYYTDSVKGRFTISRDNAKNTVYLQMSSLKPEDTAVYYCAADVRWAGDGHRADYWGQGTQVTVSS
estimated half-life (trastuzumab (Herceptin) [1]): 43.5 h

B2: 1HE, anti-idiotypic camelid single domain antibody against trastuzumab (VHH)
VHH: EVQLVESGGGLVQAGDSLTLSCAASGRTFSSVAMGWFRQAPGKERKFVANISWNGDSTYYTDSVKGRFTISRDNAKNTVYLQMSSLKPEDTAVYYCAADVRWTGDGHRADYWGQGTQVTVSS
notes: also called wild-type 1HE; cold-1HE
half-life of dissociation (trastuzumab (Herceptin) [2]): 26.6 h
T1/2 (trastuzumab (Herceptin) [3]): 17.4 h
Kd (trastuzumab (Herceptin) [4]): 0.0335 nM
Kd (trastuzumab (Herceptin) [5]): ≤ 0.122 nM
IC50 (trastuzumab (Herceptin) [6]): 0.122 nM
IC50 (trastuzumab (Herceptin) [7]): 0.129 nM

B3: 2H2 (VHH)
VHH: EVQLVESGDGLVQAGDSLTLSCAASGRAFSSVAMGWFRQAPGKERKFVANISWNGDSTYYTDSVKGRFTISRDNAKNTVYLQMSSLKPEDTAVYYCAADVRWTGDGHRADYWGQGTQVTVSS
notes: also called 1HE mutant 2H2
estimated half-life (trastuzumab (Herceptin) [1]): 26.9 h
T1/2 (trastuzumab (Herceptin) [8]): 5.4 h

B4: 1G1 (VHH)
VHH: EVQLVESGGGLVQAGDSLTLSCAASGRTFSSVAMGWFRQAPGKERKFVANISWDGGSTYYTDSVKGRFTISRDSAKNTVYLQMSSLKPEDTAVYYCAADVRWTGDGHRADYWGQGTQVTVSS
T1/2 (trastuzumab (Herceptin) [9]): 12.1 h

B5: 1F3 (VHH)
VHH: EVQLVESGGGLVQAGDSLTLSCAASGRTFSSVAMGWFRQAPGKERKFVANISWNGYSTYYTDSVKGRFTISRDNAKNTVYLQMSSLKPEDTAVYYCAADVRWTGDGHRADYWGQGTQVTVSS
T1/2 (trastuzumab (Herceptin) [9]): 5.1 h

B6: 2G2 (VHH)
VHH: EVQLVESGGGLVQAGDSLTLSCAASGRTFSSVAMGWFRQAPGKERKFVANISWNGDSTYYTDSVKGRFTISRDNAKNTVYLQMSSLKPEDTAVYYCAADVRWTGDGHRADNWGQGTQVTVSS
estimated half-life (trastuzumab (Herceptin) [1]): 15.7 h

B7: 2D11 (VHH)
VHH: EVQLVESGGGLVQAGDSLTLSCAASGRTFSSVAMGWFRQAPGKERKFVANISWNGDSTYYTDSVKGRFTISRDNARNTVYLQMSSLKPEDTAVYYCAADVRWTGDGHRADYWGQGTQVTVSS
notes: also called 1HE mutant 2D11
estimated half-life (trastuzumab (Herceptin) [1]): 29.6 h
T1/2 (trastuzumab (Herceptin) [8]): 8.8 h

B8: 1G11 (VHH)
VHH: EVQLVESGGDLVQAGDSLTLSCAASGRTFSGVAMGWFRQAPGKERKFVANISWNGVSTYYTDSVKGRFTISRDNAKNTVYLQMSSLKPEDTAVYYCAADVRWTGDGHRADYWGQGTQVTVSS
T1/2 (trastuzumab (Herceptin) [9]): 35.1 h

B9: 2F9 (VHH)
VHH: EVQLVESGGGLVQAGDSLTLSCAASGRTFSSVAMGWFRQAPGKERKFVANISWNGDSTYYTDSVKGRFTISRDNAKNTVYLQMSSLKPEDTAVYYCAADVRWTGEGHRADYWGQGTQVTVSS
notes: also called 1HE mutant 2F9
estimated half-life (trastuzumab (Herceptin) [1]): 30.8 h
T1/2 (trastuzumab (Herceptin) [8]): 55.5 h

B10: 1E10 (VHH)
VHH: EVQLVESGGGLVQAGAGLTLSCAASGRTFSSVAMGWFRQAPGKERKFVANISWNGDSTYYTDSVKGRFTISRDNAKNTVYLQMSSLKPEDTAVYYCAADVRWTGDGHRADYWGQGTQVTVSS
notes: also called 1HE mutant 1E10
estimated half-life (trastuzumab (Herceptin) [10]): 19.3 h

B11: 2A4 (VHH)
VHH: EVQLVESGGGLVQAGDSLTLSCAASGRTFSSVAMGWFRQAPGKERKFVANISWNGDSAYYTDSVKGRFTISRDNAKNTVYLQMSSLKPEDTAVYYCAADVRWTGDGHRADYWGQGTQVTVSS
notes: also called 1HE mutant 2A4
estimated half-life (trastuzumab (Herceptin) [1]): 70.8 h
T1/2 (trastuzumab (Herceptin) [8]): 187 h

B12: 1HE mutant 2E10 (L18Q, T103A) (VHH)
VHH: EVQLVESGGGLVQAGDSQTLSCAASGRTFSSVAMGWFRQAPGKERKFVANISWNGDSTYYTDSVKGRFTISRDNAKNTVYLQMSSLKPEDTAVYYCAADVRWAGDGHRADYWGQGTQVTVSS
estimated binding half-life (trastuzumab (Herceptin) [11]): 482 h
estimated half-life (trastuzumab (Herceptin) [1]): 35.7 h

B13: 1C3 (VHH)
VHH: EVQLVESGGGLVQAGDSLTLSCAASGRTFSSVAMGWFRQAPGKERKFVANISWNGDSTYYTDSVKGRFTISRDNAKNTVYLQMSSLKPEDTAVYYCVADVRWTGDGHRADYWGQGTQVTVSS
T1/2 (trastuzumab (Herceptin) [9]): 12.1 h

B14: 2E11 (VHH)
VHH: EVQLVESGGGLVQAGDSLTLSCAASGRTFSSVAMGWFRQAPGKERKFVANISWNGDSTYYTDSVKGRFTISRDNAKNTVYLQMSSLEPEDTAVYYCAADVRWTGDGHRADYWGQGTQVTVSS
notes: also called 1HE mutant 2E11
estimated half-life (trastuzumab (Herceptin) [1]): 17.7 h

B15: 2C4 (VHH)
VHH: EVQLVESGGGLVQAGDSLTLSCAASGRTFSSVAMGWFRQAPGKERKFVANISWNGDSTYYTDSVKGRFTISRDNAKNTVYLQMSSLKPEDTAVYYCAADVRWAGDGHRADYWGQGTLVTVSS
notes: also called 1HE mutant 2C4
T1/2 (trastuzumab (Herceptin) [8]): 84.1 h
